Measurements published in the supplement of paper PMC10567573.

B1: HSP90AB1 (parent)
chain: EADKNDKAVKDLVVLLFETALLSS
B2: BTBD1 (parent)
chain: TSAEIELPDVEPAAFLALLRFLYS

Variants of: B1
Test: protein stability index of a GFP-peptide fusion (GPS, HEK-293T) (PSI 1-6); higher = more stable
Conditions: c terminus: a fixed tail appended
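Also: lentivirally expressed fusions sorted by FACS into six bins by GFP to DsRed ratio, PSI derived from sequencing read proportions per bin multiplied by bin number.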

Protein stability index, by site and new letter:
E1: D 1.86, N 1.89, V 2.54, A 1.45, L 2.02, F 1.36, G 2.37, W 2.3, T 2.58, Q 1.87, K 1.61, H 1.94, M 2.69, S 1.78, R 1.69, I 2.56, P 1.95, C 1.88
A2: K 1.68, Q 1.54, H 2.1, C 1.74, F 2.04, W 1.92, Y 1.73, M 1.67, S 1.77, P 1.79, L 1.68, G 1.33, I 1.73, D 2.04, T 2.15, R 2.26, N 2.11, V 2.1
K4: Q 2.09, R 1.59, G 1.34, F 2.21, C 1.87, N 2.05, P 1.63, S 1.8, I 2, A 1.9, M 2.13, H 1.82, L 1.75, D 2.13, E 2.2
D3: A 2.57, K 1.58, S 2.65, W 1.86, G 1.58, N 2.13, H 1.98, C 1.4, P 2.47, T 1.65, I 1.9, Q 1.82, L 1.86, E 1.65, R 1.9, M 1.25, Y 2.46, V 2.02, F 3.79

Variants of: B2
Test: as above
Conditions: c terminus: a fixed tail appended

Protein stability index of substitutions, site by site:
L18: C 1.77, Q 1.83, H 2.55, S 1.78, F 1.73, D 2.64, A 1.08, Y 1.59, G 1.86, R 2.03, P 2.11, V 1.37, K 1.95, N 1.57, W 2.2, T 1.77, E 2.13, M 1.72, I 2.69
A17: Q 1.61, H 1.67, S 1.93, I 1.4, E 2.12, D 1.89, G 2.27, Y 1.98, F 1.98, K 1.88, N 2.06, P 1.75, V 1.99, L 2.04, M 1.62, T 2.38, W 2, R 2.42, C 1.53
F21: N 1.69, S 1.97, L 2.01, W 2.41, Q 1.99, E 1.82, M 1.94, K 1.78, R 2.25, V 2.01, P 1.8, T 1.89, C 1.4, Y 1.61, I 2.25, G 2.18, D 1.85, A 2.21, H 2.14
P12: L 1.67, S 2.46, M 1.46, G 1.85, D 1.47, C 2.3, R 1.93, Y 2.22, F 1.84, T 1.41, H 2.15, N 1.95, W 1.8, I 2.24, V 2.46, A 1.29, K 1.61, E 2.08, Q 1.19
Y23: V 2.37, E 1.9, C 1.79, H 1.6, A 1.99, L 2.57, N 1.61, F 1.75, S 1.36, K 2.1, R 2.26, W 1.99, M 2.27, Q 2.21, G 1.58, D 1.49, T 1.94, P 1.75, I 1.97
F15: H 1.67, I 1.95
